Measurements published in patent US20190359687A1 (Bayer, published 2019).

T1: purified human glycophorin A protein (Sigma, cat # G5017) (human, UniProt P02724 20-150)
T1 construct: mature; also called Sigma hGPA; Sigma GPA
T1 sequence (looked up): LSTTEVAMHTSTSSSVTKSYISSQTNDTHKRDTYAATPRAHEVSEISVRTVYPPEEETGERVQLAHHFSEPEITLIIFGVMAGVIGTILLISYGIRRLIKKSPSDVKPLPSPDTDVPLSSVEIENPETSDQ

T2: recombinant human GPA ectodomain (human, UniProt P02724 20-91)
T2 construct: also called recombinant hGPA ECD; recGPA
T2 sequence: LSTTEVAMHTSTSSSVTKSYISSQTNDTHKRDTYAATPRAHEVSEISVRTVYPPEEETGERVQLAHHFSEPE

T3: human glycophorin A in the red blood cell membrane (human, UniProt P02724 20-150)
T3 construct: whole, on cells; used for intact RBC, isolated RBC membranes and transfected cells; the assay field tells which; also called GPA; hGPA
T3 sequence (looked up): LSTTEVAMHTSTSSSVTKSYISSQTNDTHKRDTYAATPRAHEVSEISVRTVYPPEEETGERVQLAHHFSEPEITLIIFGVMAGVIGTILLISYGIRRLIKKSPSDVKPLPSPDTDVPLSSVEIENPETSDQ

T4: recombinant human glycophorin A ectodomain protein (human, UniProt P02724 20-91)
T4 construct: 72 amino acids of the extracellular region; also called Hu-rec GPA
T4 sequence: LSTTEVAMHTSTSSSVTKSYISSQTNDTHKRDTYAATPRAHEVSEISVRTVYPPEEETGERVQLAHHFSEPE

T5: native human glycophorin A protein (human, UniProt P02724 20-150)
T5 construct: mature; also called Hu-nat GPA
T5 sequence (looked up): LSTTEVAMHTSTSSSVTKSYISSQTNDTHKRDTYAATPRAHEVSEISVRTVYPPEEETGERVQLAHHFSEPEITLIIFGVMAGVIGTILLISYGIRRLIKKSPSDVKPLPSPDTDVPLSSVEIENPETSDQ


What was measured:
[1] = biological target: T1, purified human glycophorin A protein …; test: ELISA, native hGPA
[2] = biological target: T2, recombinant human GPA ectodomain; test: ELISA, rec hGPA ectodomain
[3] = biological target: T3, human glycophorin A in the red blood …; test: ELISA, human RBC membranes;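 also: antibodies bound to isolated human red blood cell membrane ghosts coated on 96-well plates, tested 1.5 h at room temperature, bound antibody quantified with a detection antibody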
Procedure: In order to evaluate binding of antibodies to GPA in the native context of the red blood cell membrane we made use of isolated red blood cell membranes, also called red blood cells ghosts. These membranes are prepared by first isolating red blood cells from citrated whole blood. Citrated whole blood is layered on to Ficol and centrifuged at low speed for 20 minutes to pellet the red blood cells. The supernatant containing plasma and other blood cells is discarded and the red blood cell pellet is subsequently washed 3 times in 10 cell volumes of phosphate buffered saline (PBS). A 10 ml pellet of purified red blood cells is resuspended in 30 ml of cold low osmorality 20 mM phosphate buffer (pH7.4) and incubated for 30 mins to break open the RBC. After Centrifugation at 10,000 rpm for 30 min at 5° C. the hemoglobin containing supernatant is discarded. To the membrane pellet another 30 ml of 20 mM phosphate buffer is added and the sample centrifuged again at 10,000 rpm for 30 min at 5° C. to pellet the membrane fraction. This wash and centrifugation step is repeated another 4 times. The red blood cell membranes are then resuspended in 20 mL of PBS to achieve an equivalent of approximately 2.5E9 cells/mL and stored frozen at −20° C. Binding of antibodies to RBC ghost can be measured by ELISA in which the RBC ghost suspension (5×10⁶ in 100 ul PBS) was added to each well of flat bottom 96-well ELISA microtiter plates (2HB, Immunolon) and the plates incubated overnight at 4° C. The plates were blocked with Starting blocking buffer (Thermo Fisher) for 2 hours at room temperature (RT). Antibodies or other test molecules were added to each well and incubated for 1.5 hours at RT. After 4 washes 100 ul of an appropriate detection antibody was added to each well and incubated for 1 hour at RT. After 4 washes the detection antibody was measured using appropriate detection reagents.

[4] = biological target: T4, recombinant human glycophorin A …; test: ELISA, Fab on coated recombinant human GPA ectodomain
[5] = biological target: T5, native human glycophorin A protein; test: ELISA, Fab on coated native human GPA

Row | Binder | binding by ELISA relative to parental [1] | binding by ELISA relative to parental [2] | binding by ELISA relative to parental [3] | binding in ELISA relative to parental Fab [4] | binding in ELISA relative to parental Fab [5]
1 | TPP-5332 (Fab, V domains shown, also called VH: (K74T)) VH: EVQLVQSGAEVKKPGASVKVSCKASGYTFTTYTIHWVRQAPGQGLEWIGYINPSSDYTRYNPKFKDRVTLTTDTSTSTAYMELRSLRSDDTAVYYCQTGTRDYWGQGTTVTVSS VL: DIQLTQSPSFLSASVGDRVTITCSAASSVSYIYWFQQKPGKAPKLLIYSTSTLPSGVPSRFSGSGSGTEYTLTISSLQPEDFATYYCHQRNSFPFTFGQGTKLEIKR | 0.83 | 0.87 | 0.58 | – | –
2 | TPP-5357 (Fab, V domains shown, also called VL: (S24R)#) VH: EVQLVQSGAEVKKPGASVKVSCKASGYTFTTYTIHWVRQAPGQGLEWIGYINPSSDYTRYNPKFKDRVTLTTDKSTSTAYMELRSLRSDDTAVYYCQTGTRDYWGQGTTVTVSS VL: DIQLTQSPSFLSASVGDRVTITCRAASSVSSYIYWFQQKPGKAPKLLIYSTSTLPSGVPSRFSGSGSGTEYTLTISSLQPEDFATYYCHQRNSFPFTFGQGTKLEIKR | 0.23 | 0.23 | 0.37 | – | –
3 | TPP-5343 (Fab, V domains shown, also called VL: (S28G)) VH: EVQLVQSGAEVKKPGASVKVSCKASGYTFTTYTIHWVRQAPGQGLEWIGYINPSSDYTRYNPKFKDRVTLTTDKSTSTAYMELRSLRSDDTAVYYCQTGTRDYWGQGTTVTVSS VL: DIQLTQSPSFLSASVGDRVTITCSAASGVSYIYWFQQKPGKAPKLLIYSTSTLPSGVPSRFSGSGSGTEYTLTISSLQPEDFATYYCHQRNSFPFTFGQGTKLEIKR | 0.95 | 0.97 | 0.71 | – | –
4 | TPP-5351 (Fab, V domains shown, also called VL: (Y70F)) VH: EVQLVQSGAEVKKPGASVKVSCKASGYTFTTYTIHWVRQAPGQGLEWIGYINPSSDYTRYNPKFKDRVTLTTDKSTSTAYMELRSLRSDDTAVYYCQTGTRDYWGQGTTVTVSS VL: DIQLTQSPSFLSASVGDRVTITCSAASSVSYIYWFQQKPGKAPKLLIYSTSTLPSGVPSRFSGSGSGTEFTLTISSLQPEDFATYYCHQRNSFPFTFGQGTKLEIKR | 0.71 | 0.78 | 0.71 | – | –
5 | TPP-5335 (Fab, V domains shown, also called VH: (Q97A)) VH: EVQLVQSGAEVKKPGASVKVSCKASGYTFTTYTIHWVRQAPGQGLEWIGYINPSSDYTRYNPKFKDRVTLTTDKSTSTAYMELRSLRSDDTAVYYCATGTRDYWGQGTTVTVSS VL: DIQLTQSPSFLSASVGDRVTITCSAASSVSYIYWFQQKPGKAPKLLIYSTSTLPSGVPSRFSGSGSGTEYTLTISSLQPEDFATYYCHQRNSFPFTFGQGTKLEIKR | 0.77 | 0.83 | 0.65 | – | –
6 | TPP-5352 (Fab, V domains shown, also called VL: (H88Q)) VH: EVQLVQSGAEVKKPGASVKVSCKASGYTFTTYTIHWVRQAPGQGLEWIGYINPSSDYTRYNPKFKDRVTLTTDKSTSTAYMELRSLRSDDTAVYYCQTGTRDYWGQGTTVTVSS VL: DIQLTQSPSFLSASVGDRVTITCSAASSVSYIYWFQQKPGKAPKLLIYSTSTLPSGVPSRFSGSGSGTEYTLTISSLQPEDFATYYCQQRNSFPFTFGQGTKLEIKR | 0.36 | 0.26 | 0.34 | – | –
7 | TPP-5354 (Fab, V domains shown, also called VL: (F93Y)) VH: EVQLVQSGAEVKKPGASVKVSCKASGYTFTTYTIHWVRQAPGQGLEWIGYINPSSDYTRYNPKFKDRVTLTTDKSTSTAYMELRSLRSDDTAVYYCQTGTRDYWGQGTTVTVSS VL: DIQLTQSPSFLSASVGDRVTITCSAASSVSYIYWFQQKPGKAPKLLIYSTSTLPSGVPSRFSGSGSGTEYTLTISSLQPEDFATYYCHQRNSYPFTFGQGTKLEIKR | 0.33 | 0.17 | 0.35 | – | –
8 | TPP-5333 (Fab, V domains shown, also called VH: (R84S)) VH: EVQLVQSGAEVKKPGASVKVSCKASGYTFTTYTIHWVRQAPGQGLEWIGYINPSSDYTRYNPKFKDRVTLTTDKSTSTAYMELSSLRSDDTAVYYCQTGTRDYWGQGTTVTVSS VL: DIQLTQSPSFLSASVGDRVTITCSAASSVSYIYWFQQKPGKAPKLLIYSTSTLPSGVPSRFSGSGSGTEYTLTISSLQPEDFATYYCHQRNSFPFTFGQGTKLEIKR | 0.92 | 0.97 | 0.59 | – | –
9 | TPP-5339, Hu6C12-24 Fab variant VH: (E1Q, I48M, L70M, T72R, K74T, R84S, D89E, Q97A, T98R) (Fab, V domains shown, Built on the parental Fab TPP-4935) VH: QVQLVQSGAEVKKPGASVKVSCKASGYTFTTYTIHWVRQAPGQGLEWMGYINPSSDYTRYNPKFKDRVTMTRDTSTSTAYMELSSLRSEDTAVYYCARGTRDYWGQGTTVTVSS VL: DIQLTQSPSFLSASVGDRVTITCSAASSVSYIYWFQQKPGKAPKLLIYSTSTLPSGVPSRFSGSGSGTEYTLTISSLQPEDFATYYCHQRNSFPFTFGQGTKLEIKR | – | – | – | 0 relative to parental Fab | 0 relative to parental Fab
10 | TPP-5347 (Fab, V domains shown, also called VL: (F35Y)) VH: EVQLVQSGAEVKKPGASVKVSCKASGYTFTTYTIHWVRQAPGQGLEWIGYINPSSDYTRYNPKFKDRVTLTTDKSTSTAYMELRSLRSDDTAVYYCQTGTRDYWGQGTTVTVSS VL: DIQLTQSPSFLSASVGDRVTITCSAASSVSYIYWYQQKPGKAPKLLIYSTSTLPSGVPSRFSGSGSGTEYTLTISSLQPEDFATYYCHQRNSFPFTFGQGTKLEIKR | 0.52 | 0.35 | 0.43 | – | –
11 | TPP-5344 (Fab, V domains shown, also called VL: (V29I)) VH: EVQLVQSGAEVKKPGASVKVSCKASGYTFTTYTIHWVRQAPGQGLEWIGYINPSSDYTRYNPKFKDRVTLTTDKSTSTAYMELRSLRSDDTAVYYCQTGTRDYWGQGTTVTVSS VL: DIQLTQSPSFLSASVGDRVTITCSAASSISYIYWFQQKPGKAPKLLIYSTSTLPSGVPSRFSGSGSGTEYTLTISSLQPEDFATYYCHQRNSFPFTFGQGTKLEIKR | 0.84 | 0.77 | 0.6 | – | –
12 | TPP-5345 (Fab, V domains shown, also called VL: (I32L)) VH: EVQLVQSGAEVKKPGASVKVSCKASGYTFTTYTIHWVRQAPGQGLEWIGYINPSSDYTRYNPKFKDRVTLTTDKSTSTAYMELRSLRSDDTAVYYCQTGTRDYWGQGTTVTVSS VL: DIQLTQSPSFLSASVGDRVTITCSAASSVSYLYWFQQKPGKAPKLLIYSTSTLPSGVPSRFSGSGSGTEYTLTISSLQPEDFATYYCHQRNSFPFTFGQGTKLEIKR | 0.6 | 0.48 | 0.43 | – | –
13 | TPP-5355 (Fab, V domains shown, also called VL: (F95Y)) VH: EVQLVQSGAEVKKPGASVKVSCKASGYTFTTYTIHWVRQAPGQGLEWIGYINPSSDYTRYNPKFKDRVTLTTDKSTSTAYMELRSLRSDDTAVYYCQTGTRDYWGQGTTVTVSS VL: DIQLTQSPSFLSASVGDRVTITCSAASSVSYIYWFQQKPGKAPKLLIYSTSTLPSGVPSRFSGSGSGTEYTLTISSLQPEDFATYYCHQRNSFPYTFGQGTKLEIKR | 1.16 | 1.35 | 1.18 | – | –
14 | TPP-5342 (Fab, V domains shown, also called VL: (S27Q)) VH: EVQLVQSGAEVKKPGASVKVSCKASGYTFTTYTIHWVRQAPGQGLEWIGYINPSSDYTRYNPKFKDRVTLTTDKSTSTAYMELRSLRSDDTAVYYCQTGTRDYWGQGTTVTVSS VL: DIQLTQSPSFLSASVGDRVTITCSAAQSVSYIYWFQQKPGKAPKLLIYSTSTLPSGVPSRFSGSGSGTEYTLTISSLQPEDFATYYCHQRNSFPFTFGQGTKLEIKR | 0.91 | 0.95 | 0.75 | – | –
15 | TPP-5334 (Fab, V domains shown, also called VH: (D89E)) VH: EVQLVQSGAEVKKPGASVKVSCKASGYTFTTYTIHWVRQAPGQGLEWIGYINPSSDYTRYNPKFKDRVTLTTDKSTSTAYMELRSLRSEDTAVYYCQTGTRDYWGQGTTVTVSS VL: DIQLTQSPSFLSASVGDRVTITCSAASSVSYIYWFQQKPGKAPKLLIYSTSTLPSGVPSRFSGSGSGTEYTLTISSLQPEDFATYYCHQRNSFPFTFGQGTKLEIKR | 0.8 | 0.89 | 0.72 | – | –
